The text below walks through data of US20240228586A1.

The target of the assay is IL-12 receptor complex (IL-12Rb1 and IL-12Rb2) on preactivated primary mouse CD8+ T cells (mouse) (UniProt Q60837). Put plainly: cell-based or functional assay.
IL-12 receptor complex (IL-12Rb1 and IL-12Rb2) on preactivated primary mouse CD8+ T cells (mouse), sequence (Q60837 20-738, chain 1 of 2): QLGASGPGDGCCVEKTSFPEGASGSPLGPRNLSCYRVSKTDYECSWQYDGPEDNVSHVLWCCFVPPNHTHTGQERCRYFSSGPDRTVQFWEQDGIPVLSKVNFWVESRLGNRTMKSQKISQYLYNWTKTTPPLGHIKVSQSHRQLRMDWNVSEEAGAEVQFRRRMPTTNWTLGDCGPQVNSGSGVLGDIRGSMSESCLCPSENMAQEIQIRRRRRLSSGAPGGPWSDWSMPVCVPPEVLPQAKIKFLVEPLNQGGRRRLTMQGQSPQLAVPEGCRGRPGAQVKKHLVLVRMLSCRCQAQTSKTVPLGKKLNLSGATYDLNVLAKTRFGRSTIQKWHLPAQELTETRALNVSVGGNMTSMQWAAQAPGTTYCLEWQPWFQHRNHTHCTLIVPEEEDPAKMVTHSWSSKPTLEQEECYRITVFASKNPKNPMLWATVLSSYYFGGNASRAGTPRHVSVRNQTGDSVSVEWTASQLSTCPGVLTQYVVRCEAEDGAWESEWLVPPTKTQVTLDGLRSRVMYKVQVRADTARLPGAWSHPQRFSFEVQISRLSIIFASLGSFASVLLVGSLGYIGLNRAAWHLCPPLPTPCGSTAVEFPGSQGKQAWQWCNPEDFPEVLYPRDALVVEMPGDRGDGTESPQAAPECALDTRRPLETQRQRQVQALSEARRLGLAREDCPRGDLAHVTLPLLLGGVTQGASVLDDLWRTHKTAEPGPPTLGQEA
IL-12 receptor complex (IL-12Rb1 and IL-12Rb2) on preactivated primary mouse CD8+ T cells (mouse), sequence (chain, as listed by the source, chain 2 of 2): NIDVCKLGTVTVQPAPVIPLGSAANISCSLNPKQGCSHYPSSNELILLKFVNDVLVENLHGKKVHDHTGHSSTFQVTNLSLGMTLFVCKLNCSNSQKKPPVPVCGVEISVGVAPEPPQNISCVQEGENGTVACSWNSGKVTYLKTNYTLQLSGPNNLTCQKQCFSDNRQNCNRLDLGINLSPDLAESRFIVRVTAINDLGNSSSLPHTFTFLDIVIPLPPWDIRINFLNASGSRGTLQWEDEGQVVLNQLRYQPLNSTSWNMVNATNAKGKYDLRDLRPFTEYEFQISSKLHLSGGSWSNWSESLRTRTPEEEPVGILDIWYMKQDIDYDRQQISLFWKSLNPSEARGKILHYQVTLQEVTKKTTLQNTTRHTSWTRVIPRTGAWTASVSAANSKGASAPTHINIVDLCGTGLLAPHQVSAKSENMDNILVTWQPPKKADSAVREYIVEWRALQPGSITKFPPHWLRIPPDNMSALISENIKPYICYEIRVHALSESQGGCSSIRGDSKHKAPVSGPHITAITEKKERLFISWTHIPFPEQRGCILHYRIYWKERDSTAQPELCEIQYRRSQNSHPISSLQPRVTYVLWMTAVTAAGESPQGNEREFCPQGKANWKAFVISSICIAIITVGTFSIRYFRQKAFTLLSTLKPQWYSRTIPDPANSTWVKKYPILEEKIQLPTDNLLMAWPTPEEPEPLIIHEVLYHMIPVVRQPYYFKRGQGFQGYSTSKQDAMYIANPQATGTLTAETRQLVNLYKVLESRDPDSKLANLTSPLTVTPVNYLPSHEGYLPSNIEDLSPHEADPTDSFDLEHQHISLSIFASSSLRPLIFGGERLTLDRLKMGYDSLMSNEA

The substance “M-L1-IL12-CBD (from UniProt P04275 1670-1874)” showed an STAT4 phosphorylation in preactivated primary mouse CD8+ T cells, EC50 compared with unmodified IL-12 (fold decrease) of 100.

Take “M-L1-IL12 (mouse IL-12Rb1 mask fused through the (G3S)11 linker to the N-terminus of mouse p35, with mouse p40) (from UniProt P43432 23-335)”: the STAT4 phosphorylation in preactivated primary mouse CD8+ T cells, EC50 compared with unmodified IL-12 (fold decrease) came out at 100.

“M-L1-IL12-MSA (from UniProt P43432 23-335)” showed an STAT4 phosphorylation in preactivated primary mouse CD8+ T cells, EC50 compared with unmodified IL-12 (fold decrease) of 100.
